Data as given in patent publication US8673848 (Novartis, dated 2014).
Bridges are numbered along the chain shown (N, C = ends). [ ]: non-standard residue; d: D form. The star is where a group is joined. 3Pal = N[C@@H](Cc1cccnc1)C(=O)O; Myristoyl = CCCCCCCCCCCCCC(=O)*; pGlu = O=C1CC[C@@H](C(=O)O)N1; d(hCys) = N[C@H](CCS)C(=O)O; hCys = N[C@@H](CCS)C(=O)O; Nle = CCCC[C@H](N)C(=O)O; AEEA = NCCOCCOCC(=O)O

T1: human APJ receptor (hAPJ) (human, UniProt P35414 1-380)
T1 sequence (looked up): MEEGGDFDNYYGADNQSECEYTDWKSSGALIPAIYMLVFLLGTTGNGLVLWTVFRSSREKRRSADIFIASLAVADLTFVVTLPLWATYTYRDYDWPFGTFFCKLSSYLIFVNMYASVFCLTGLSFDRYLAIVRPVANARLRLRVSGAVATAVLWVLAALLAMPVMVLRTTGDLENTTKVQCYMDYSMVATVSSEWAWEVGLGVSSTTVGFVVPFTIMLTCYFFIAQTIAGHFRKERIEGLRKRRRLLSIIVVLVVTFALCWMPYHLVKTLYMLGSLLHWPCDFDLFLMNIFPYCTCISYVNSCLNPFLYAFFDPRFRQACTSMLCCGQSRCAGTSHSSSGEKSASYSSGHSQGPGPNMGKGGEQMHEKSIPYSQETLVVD


Target: T1, human APJ receptor (hAPJ)
Test: cell-based or functional assay

Row | Binder | hAPJ Ca2+ Flux EC50 [nM]
1 | [pGlu]RPRLCHKGP[3Pal]CF-OH (disulfide 6-12; SMILES CC(C)C[C@H](NC(=O)[C@H](CCCNC(=N)N)NC(=O)[C@@H]1CCCN1C(=O)[C@H](CCCNC(=N)N)NC(=O)[C@@H]1CCC(=O)N1)C(=O)N[C@H]1CSSC[C@@H](C(=O)N[C@@H](Cc2ccccc2)C(=O)O)NC(=O)[C@H](Cc2cccnc2)NC(=O)[C@@H]2CCCN2C(=O)CNC(=O)[C@H](CCCCN)NC(=O)[C@H](Cc2c[nH]cn2)NC1=O) [Example 47: pE-R-P-R-L-C-H-K-G-P-(3-PyA)-C-F-OH] | 2.41
2 | [pGlu]RPRLCEKGP[Nle]CF-OH (disulfide 6-12; SMILES CCCC[C@@H]1NC(=O)[C@@H]2CCCN2C(=O)CNC(=O)[C@H](CCCCN)NC(=O)[C@H](CCC(=O)O)NC(=O)[C@@H](NC(=O)[C@H](CC(C)C)NC(=O)[C@H](CCCNC(=N)N)NC(=O)[C@@H]2CCCN2C(=O)[C@H](CCCNC(=N)N)NC(=O)[C@@H]2CCC(=O)N2)CSSC[C@@H](C(=O)N[C@@H](Cc2ccccc2)C(=O)O)NC1=O) [Example 43: pE-R-P-R-L-C-E-K-G-P-Nle-C-F-OH] | 4.14
3 | [pGlu]RPRLCHKGP[Nle]CE-OH (disulfide 6-12; SMILES CCCC[C@@H]1NC(=O)[C@@H]2CCCN2C(=O)CNC(=O)[C@H](CCCCN)NC(=O)[C@H](Cc2c[nH]cn2)NC(=O)[C@@H](NC(=O)[C@H](CC(C)C)NC(=O)[C@H](CCCNC(=N)N)NC(=O)[C@@H]2CCCN2C(=O)[C@H](CCCNC(=N)N)NC(=O)[C@@H]2CCC(=O)N2)CSSC[C@@H](C(=O)N[C@@H](CCC(=O)O)C(=O)O)NC1=O) [Example 49: pE-R-P-R-L-C-H-K-G-P-Nle-C-E-OH] | 34.2
4 | [pGlu]RPRLKFKGP[Nle]F (lactam 6-C) [Example 5: pE-R-P-R-L-K-F-K-G-P-Nle-F] | 21.2
5 | [pGlu]RPRLCHKLP[Nle]CF-OH (disulfide 6-12; SMILES CCCC[C@@H]1NC(=O)[C@@H]2CCCN2C(=O)[C@H](CC(C)C)NC(=O)[C@H](CCCCN)NC(=O)[C@H](Cc2c[nH]cn2)NC(=O)[C@@H](NC(=O)[C@H](CC(C)C)NC(=O)[C@H](CCCNC(=N)N)NC(=O)[C@@H]2CCCN2C(=O)[C@H](CCCNC(=N)N)NC(=O)[C@@H]2CCC(=O)N2)CSSC[C@@H](C(=O)N[C@@H](Cc2ccccc2)C(=O)O)NC1=O) [Example 44: pE-R-P-R-L-C-H-K-L-P-Nle-C-F-OH] | 5.94
6 | [pGlu]RPRLCHKG[Pipecolic acid][Nle]CF-OH (disulfide 6-12) [Example 46: pE-R-P-R-L-C-H-K-G-(Pipecolic acid)-Nle-C-F-OH] | 3.87
7 | [pGlu]RPRLCHKRP[Nle]CF-OH (disulfide 6-12; SMILES CCCC[C@@H]1NC(=O)[C@@H]2CCCN2C(=O)[C@H](CCCNC(=N)N)NC(=O)[C@H](CCCCN)NC(=O)[C@H](Cc2c[nH]cn2)NC(=O)[C@@H](NC(=O)[C@H](CC(C)C)NC(=O)[C@H](CCCNC(=N)N)NC(=O)[C@@H]2CCCN2C(=O)[C@H](CCCNC(=N)N)NC(=O)[C@@H]2CCC(=O)N2)CSSC[C@@H](C(=O)N[C@@H](Cc2ccccc2)C(=O)O)NC1=O) [Example 45: pE-R-P-R-L-C-H-K-R-P-Nle-C-F-OH] | 6.55
8 | [pGlu]RPRLCHKGP[Nle]CH-OH (disulfide 6-12; SMILES CCCC[C@@H]1NC(=O)[C@@H]2CCCN2C(=O)CNC(=O)[C@H](CCCCN)NC(=O)[C@H](Cc2c[nH]cn2)NC(=O)[C@@H](NC(=O)[C@H](CC(C)C)NC(=O)[C@H](CCCNC(=N)N)NC(=O)[C@@H]2CCCN2C(=O)[C@H](CCCNC(=N)N)NC(=O)[C@@H]2CCC(=O)N2)CSSC[C@@H](C(=O)N[C@@H](Cc2c[nH]cn2)C(=O)O)NC1=O) [Example 48: pE-R-P-R-L-C-H-K-G-P-Nle-C-H-OH] | 4.1

Other lines, results leading:

Row | hAPJ Ca2+ Flux EC50 [nM] | Binder
9 | 1.92 | [pGlu]RPRLCHKGP[Nle]C-OH (disulfide 6-12; SMILES CCCC[C@@H]1NC(=O)[C@@H]2CCCN2C(=O)CNC(=O)[C@H](CCCCN)NC(=O)[C@H](Cc2c[nH]cn2)NC(=O)[C@@H](NC(=O)[C@H](CC(C)C)NC(=O)[C@H](CCCNC(=N)N)NC(=O)[C@@H]2CCCN2C(=O)[C@H](CCCNC(=N)N)NC(=O)[C@@H]2CCC(=O)N2)CSSC[C@@H](C(=O)O)NC1=O) [Example 50: pE-R-P-R-L-C-H-K-G-P-Nle-C-OH]
10 | 8.16 | [pGlu]RPRL[d(hCys)]HKGP[Nle][d(hCys)]F-OH (disulfide 6-12; SMILES CCCC[C@@H]1NC(=O)[C@@H]2CCCN2C(=O)CNC(=O)[C@H](CCCCN)NC(=O)[C@H](Cc2c[nH]cn2)NC(=O)[C@H](NC(=O)[C@H](CC(C)C)NC(=O)[C@H](CCCNC(=N)N)NC(=O)[C@@H]2CCCN2C(=O)[C@H](CCCNC(=N)N)NC(=O)[C@@H]2CCC(=O)N2)CCSSCC[C@H](C(=O)N[C@@H](Cc2ccccc2)C(=O)O)NC1=O) [Example 55: pE-R-P-R-L-(D-hC)-H-K-G-P-Nle-(D-hC)-F-OH]
11 | 1.09 | [pGlu]RPRLCHKGP[Nle][hCys]F-OH (disulfide 6-12; SMILES CCCC[C@@H]1NC(=O)[C@@H]2CCCN2C(=O)CNC(=O)[C@H](CCCCN)NC(=O)[C@H](Cc2c[nH]cn2)NC(=O)[C@@H](NC(=O)[C@H](CC(C)C)NC(=O)[C@H](CCCNC(=N)N)NC(=O)[C@@H]2CCCN2C(=O)[C@H](CCCNC(=N)N)NC(=O)[C@@H]2CCC(=O)N2)CSSCC[C@@H](C(=O)N[C@@H](Cc2ccccc2)C(=O)O)NC1=O) [Example 51: pE-R-P-R-L-C-H-K-G-P-Nle-hC-F-OH]
12 | 13.1 | Myristoyl-[AEEA][AEEA]QRPRLCHKGP[Nle]C[dF]-OH (disulfide 8-14; SMILES CCCCCCCCCCCCCC(=O)NCCOCCOCC(=O)NCCOCCOCC(=O)N[C@@H](CCC(N)=O)C(=O)N[C@@H](CCCNC(=N)N)C(=O)N1CCC[C@H]1C(=O)N[C@@H](CCCNC(=N)N)C(=O)N[C@@H](CC(C)C)C(=O)N[C@H]1CSSC[C@@H](C(=O)N[C@H](Cc2ccccc2)C(=O)O)NC(=O)[C@H](CCCC)NC(=O)[C@@H]2CCCN2C(=O)CNC(=O)[C@H](CCCCN)NC(=O)[C@H](Cc2c[nH]cn2)NC1=O) [Example 58: Myristoyl-O2Oc-O2Oc-Q-R-P-R-L-C-H-K-G-P-Nle-C-f-OH]
13 | 53.9 | [pGlu]RPRL[hCys]HKGP[Nle][hCys]F-OH (disulfide 6-12; SMILES CCCC[C@@H]1NC(=O)[C@@H]2CCCN2C(=O)CNC(=O)[C@H](CCCCN)NC(=O)[C@H](Cc2c[nH]cn2)NC(=O)[C@@H](NC(=O)[C@H](CC(C)C)NC(=O)[C@H](CCCNC(=N)N)NC(=O)[C@@H]2CCCN2C(=O)[C@H](CCCNC(=N)N)NC(=O)[C@@H]2CCC(=O)N2)CCSSCC[C@@H](C(=O)N[C@@H](Cc2ccccc2)C(=O)O)NC1=O) [Example 52: pE-R-P-R-L-hC-H-K-G-P-Nle-hC-F-OH]
14 | 6.7 | [pGlu]RPRLCHKGP[Nle][d(hCys)]F-OH (disulfide 6-12; SMILES CCCC[C@@H]1NC(=O)[C@@H]2CCCN2C(=O)CNC(=O)[C@H](CCCCN)NC(=O)[C@H](Cc2c[nH]cn2)NC(=O)[C@@H](NC(=O)[C@H](CC(C)C)NC(=O)[C@H](CCCNC(=N)N)NC(=O)[C@@H]2CCCN2C(=O)[C@H](CCCNC(=N)N)NC(=O)[C@@H]2CCC(=O)N2)CSSCC[C@H](C(=O)N[C@@H](Cc2ccccc2)C(=O)O)NC1=O) [Example 54: pE-R-P-R-L-C-H-K-G-P-Nle-(D-hC)-F-OH]
15 | 10 | Myristoyl-[AEEA][AEEA][AEEA]QRPRLCHKGP[Nle]C[dF]-OH (disulfide 9-15; SMILES CCCCCCCCCCCCCC(=O)NCCOCCOCC(=O)NCCOCCOCC(=O)NCCOCCOCC(=O)N[C@@H](CCC(N)=O)C(=O)N[C@@H](CCCNC(=N)N)C(=O)N1CCC[C@H]1C(=O)N[C@@H](CCCNC(=N)N)C(=O)N[C@@H](CC(C)C)C(=O)N[C@H]1CSSC[C@@H](C(=O)N[C@H](Cc2ccccc2)C(=O)O)NC(=O)[C@H](CCCC)NC(=O)[C@@H]2CCCN2C(=O)CNC(=O)[C@H](CCCCN)NC(=O)[C@H](Cc2c[nH]cn2)NC1=O) [Example 59: Myristoyl-O2Oc-O2Oc-O2Oc-Q-R-P-R-L-C-H-K-G-P-Nle-C-f-OH]
16 | 1.12 | [pGlu]RPRLCHKGP[Nle][dC]F-OH (disulfide 6-12; SMILES CCCC[C@@H]1NC(=O)[C@@H]2CCCN2C(=O)CNC(=O)[C@H](CCCCN)NC(=O)[C@H](Cc2c[nH]cn2)NC(=O)[C@@H](NC(=O)[C@H](CC(C)C)NC(=O)[C@H](CCCNC(=N)N)NC(=O)[C@@H]2CCCN2C(=O)[C@H](CCCNC(=N)N)NC(=O)[C@@H]2CCC(=O)N2)CSSC[C@H](C(=O)N[C@@H](Cc2ccccc2)C(=O)O)NC1=O) [Example 56: pE-R-P-R-L-C-H-K-G-P-Nle-c-F-OH]
17 | 1.07 | [pGlu]RPRL[dC]HKGP[Nle]CF-OH (disulfide 6-12; SMILES CCCC[C@@H]1NC(=O)[C@@H]2CCCN2C(=O)CNC(=O)[C@H](CCCCN)NC(=O)[C@H](Cc2c[nH]cn2)NC(=O)[C@H](NC(=O)[C@H](CC(C)C)NC(=O)[C@H](CCCNC(=N)N)NC(=O)[C@@H]2CCCN2C(=O)[C@H](CCCNC(=N)N)NC(=O)[C@@H]2CCC(=O)N2)CSSC[C@@H](C(=O)N[C@@H](Cc2ccccc2)C(=O)O)NC1=O) [Example 53: pE-R-P-R-L-c-H-K-G-P-Nle-C-F-OH]
18 | 2.01 | [pGlu]RPRL[dC]HKGP[Nle][dC]F-OH (disulfide 6-12; SMILES CCCC[C@@H]1NC(=O)[C@@H]2CCCN2C(=O)CNC(=O)[C@H](CCCCN)NC(=O)[C@H](Cc2c[nH]cn2)NC(=O)[C@H](NC(=O)[C@H](CC(C)C)NC(=O)[C@H](CCCNC(=N)N)NC(=O)[C@@H]2CCCN2C(=O)[C@H](CCCNC(=N)N)NC(=O)[C@@H]2CCC(=O)N2)CSSC[C@H](C(=O)N[C@@H](Cc2ccccc2)C(=O)O)NC1=O) [Example 57: pE-R-P-R-L-c-H-K-G-P-Nle-c-F-OH]
